# Molecular target: the molecule itself
# Assay: SEC
row,Protein,stoichiometry N
1,TatB^22-171 (soluble membrane-extrinsic cytoplasmic domain of E. coli TatB) (domain or fragment) PQRLPVAVKTVAGWIRALRSLATTVQNELTQELKLQEFQDSLKKVEKASLTNLTPELKASMDELRQAAESMKRSYVANDPEKASDEAHTIHNPVVKDNEAAHEGVTPAAAQTQASSPEQKPETTPEPVVKPAADAEPKTAAPSPSSSDKP,4
2,YpTatB^22-220 (soluble cytoplasmic domain of Yersinia pseudotuberculosis TatB) (domain or fragment) PERLPVAVRTVSGWIRTLRSLAATVQNELAQELKLQELQDSLKKVEQAGLQNLTPELKASMDELKEAAEALKRSYHVDAGSEAPHTIHNPLVTEPEAIHDGVTPAEPATQVSALAQAPNILEAGTASVADSVVEAAPVTTVKSVVQGEVLVKSTPVQEVGLADVMDKPVTKQQIDTIDSHGTDLSSAGPSRIHQPGGDQ,3

# — publication doi:10.1101/2020.05.11.089458 (bioRxiv, 2020)
